Results: US20110207677

Molecular target: T1, L-TAT-IB1(s)
T1 chain: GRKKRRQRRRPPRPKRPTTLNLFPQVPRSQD

B1: Recombinant and non activated JNK3 (protein)
chain: MSLHFLYYCSEPTLDVKIAFCQGFDKQVDVSYIAKHYNMSKSKVDNQFYSVEVGDSTFTVLKRYQNLKPIGSGAQGIVCAAYDAVLDRNVAIKKLSRPFQNQTHAKRAYRELVLMKCVNHKNIISLLNVFTPQKTLEEFQDVYLVMELMDANLCQVIQMELDHERMSYLLYQMLCGIKHLHSAGIIHRDLKPSNIVVKSDCTLKILDFGLARTAGTSFMMTPYVVTRYYRAPEVILGMGYKENVDIWSVGCIMGEMVRHKILFPGRDYIDQWNKVIEQLGTPCPEFMKKLQPTVRNYVENRPKYAGLTFPKLFPDSLFPADSEHNKLKASQARDLLSKMLVIDPAKRISVDDALQHPYINVWYDPAEVEAPPPQIYDKQLDEREHTIEEWKELIYKEVMNSEEKTKNGVVKGQPSPSGAAVNSSESLPPSSSVNDISSMSTDQTLASDTDSSLEASAGPLGCCR
B1 was tested, and the “JNK3 phosphorylation of Elk1 (solid phase kinase assay)” value was “a marked exception was the absence of TAT-IB(s) inhibition of JNK3 phosphorylation of Elk1”.
